From paper PMC8125372, “Refining the Design of Diblock Elastin-Like Polypeptides for Self-Assembly into Nanoparticles” (Polymers, 2021) come the findings set out here.

This data set concerns the molecule itself. The experiment in a line: dynamic light scattering; 10 µM ELP in PBS on a heating ramp (7-40 °C in the legend, 7-37 °C in the methods), scattering angle 90°; nanoparticles between the CMT and Tt,bulk (18.5 and 27 °C for ELP-[*M1V3-40]-[I-90]; 19 and 31 °C for ELP-[*M1V3-60]-[I-90]).

B1: ELP-[*M1V3-40]-[I-90] (other)
chain: MWVPGVGVPGMGVPGVGVPGVGVPGVGVPGMGVPGVGVPGVGVPGVGVPGMGVPGVGVPGVGVPGVGVPGMGVPGVGVPGVGVPGVGVPGMGVPGVGVPGVGVPGVGVPGMGVPGVGVPGVGVPGVGVPGMGVPGVGVPGVGVPGVGVPGMGVPGVGVPGVGVPGVGVPGMGVPGVGVPGVGVPGVGVPGMGVPGVGVPGVGIGVPGIGVPGIGVPGIGVPGIGVPGIGVPGIGVPGIGVPGIGVPGIGVPGIGVPGIGVPGIGVPGIGVPGIGVPGIGVPGIGVPGIGVPGIGVPGIGVPGIGVPGIGVPGIGVPGIGVPGIGVPGIGVPGIGVPGIGVPGIGVPGIGVPGIGVPGIGVPGIGVPGIGVPGIGVPGIGVPGIGVPGIGVPGIGVPGIGVPGIGVPGIGVPGIGVPGIGVPGIGVPGIGVPGIGVPGIGVPGIGVPGIGVPGIGVPGIGVPGIGVPGIGVPGIGVPGIGVPGIGVPGIGVPGIGVPGIGVPGIGVPGIGVPGIGVPGIGVPGIGVPGIGVPGIGVPGIGVPGIGVPGIGVPGIGVPGIGVPGIGVPGIGVPGIGVPGIGVPGIGVPGIGVPGIGVPGIGVPGIGVPGIGVPGIGVPGIGVPGIGVPGIGVPGIGVPGIGVPGIGVPGIGVPGY
modifications: Thioether side chain of Met residues oxidized into sulfoxide M(O) with H2O2 (11 Met); two Met residues were found oxidized into sulfone M(O2)
notes: N-terminal leader of the elastin-like polypeptide; C-terminal residue; also called oxidized ELP-[M1V3-40]-[I-90]; source: E. coli BL21 Star (DE3), purified (inverse transition cycling with ammonium sulfate, desalting), then oxidised with H2O2
As for B1, the binding result is reported as “binds”.
